Data as given in paper PMC2148200.

Columns and labels:
TGF-β1 = assay: ELISA
[1] = target: human recombinant BMP-2 (human) (UniProt P12643); assay: ELISA
Chain of human recombinant BMP-2 (human) (P12643 283-396): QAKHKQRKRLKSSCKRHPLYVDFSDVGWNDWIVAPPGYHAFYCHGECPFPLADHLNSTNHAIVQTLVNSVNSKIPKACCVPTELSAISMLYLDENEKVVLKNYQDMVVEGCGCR

Kd (TGF-β1): 7.65 nM | Kd [1]: 5.23 nM
Substance: recombinant human type IIA procollagen NH2-propeptide (rhIIA-GST, exon 2-GST fusion protein) (domain or fragment)
